Results on 21 variants are retold here after the RNAGym collection of RNA variant scans (doi:10.1073/pnas.2313332121).

The chains are these.
B1: TPR t1 (parent)
chain: GACCAAUCUGCCCUCAGAGCUCGAGAACAUCUUCGGAUGCAGAGGAGGCAGGCUUCGGUGGCGCGAUAGCGCCAACGUCCUCAACCUCCAAUGCAUCCCACCACAUGAUGAUGCCUGAAGAGCCUUGGUUUUUUG

The data set covers variants of B1. The data set can be described thus: polymerase ribozyme fitness, log enrichment relative to wild type (log ratio); higher = more active; in vitro selection for triplet polymerase activity. Summed up: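 Input and output libraries were sequenced on Illumina after a single in vitro selection round, run in triplicate on PCR-built, transcribed mutant libraries of each subunit of a heterodimeric triplet polymerase ribozyme. Selection annealed libraries to a biotinylated primer, the partner subunit and triplets, incubated them frozen at −7 °C, then gel-excised extended constructs for streptavidin-bead capture and RT-PCR. Genotypes with ≥10 input reads and ≥1 read per output were kept. Fitness is the logarithm, taken in base 2, of genotype enrichment divided by wild-type enrichment, using inverse-variance-weighted replicate averages.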
Consider GACCAAUCUGCUCUCAGAGCUCGAGAACAUCUUCGGAUGCAGAGGAGGCAGGUUUCGGUGGCGCGAUAGCUCCAACAUCCUCAACCUCCAAUGCAUCCCACCACAUGAUGAUGCCUGAACAGCCUUGGUUUUUUG [C12U C53U G71U G77A G120C], for which the “polymerase ribozyme fitness (log ratio)” value worked out at 1.19.

As to GACCAAUCUGCUCUCAGAGCUCGAGAACAUCUUCGGAUGCAGAGGAGGCAGGCUUCGGUGGUGCGAUAGCGCCAACGUCCUCAACCUCCAAUGCAUCCCACCACAUGAUGAUGCCUGAAGAGCCUUGGUUUUUUG [C12U C62U], the “polymerase ribozyme fitness (log ratio)” value came out at 0.166.

As to GACCAAUCUGCUCUCAGAGCUCGAGAACAUCUUCGGAUGCAGAGGAGGAAGGCUUCGGUGGCGCGAUAGCGCCAACGUCCUCAACCUCCAAUGCAUCCCACCACAUGAUGAUGCUUGAAGAGCCUUGGUUUUUUG [C12U C49A C115U], the “polymerase ribozyme fitness (log ratio)” value is -1.47.

Regarding GACCAAUCUGCUCUCAGAGCUCGAGAACAUCUUCGGAUGCAGAGGAGGCAGGCUUUGGUUGCGCGAUAGCGCCAACGUCCUCAACCUCCAAUGCAUCCCACCACAUGAUGAUGCCUGAAGAGCCUUGGUUUUUUG [C12U C56U G60U], the “polymerase ribozyme fitness (log ratio)” value was -4.18.

Regarding GACCAAUCUGCUCUCAGAGCUCGAGAACAUCUUCGGAUGUAGAGGAGGCAGGCUUCGGUGGCGCGAUAGCGCCAACGUCCUCAACCUCCAAUGCAUCCCACCAAAUGAUGAUGCCUGAAGAGCCUUGGUUUUUUG [C12U C40U C104A], the “polymerase ribozyme fitness (log ratio)” value is -2.12.

As to GACCAAUCUGCUCUCAGAGCUCGAGAACAUCUUCGGAUGCAGAGGAGGCAGGGUUCGGUGGCGCGAUAGCGCCAACGUCCUUAACCUCCAAUGCAUCCCACCACAUGAUGAUGCCUGAAGAGCCUUGAUUUUUUG [C12U C53G C82U G128A], the “polymerase ribozyme fitness (log ratio)” value is -1.97.

Regarding GACCAAUCUGCUCUCAGAGCUCGAGAACAUCUUCGGAUGCAGAGGAGGCAGGUUUCGGUGGCGCGAUAGCGCCAACGUCCUCAACCUCCAAUGCAUCUCACCACAUGAUGAUGCCUGAAGAGCCUUGGUUUAUUG [C12U C53U C98U U132A], the “polymerase ribozyme fitness (log ratio)” value is -0.748.

Consider GACCAAUCUGCUCUCAGAGCUCGAGAACAUCUUCGGAUGCAGAGGAGGCAGGUUUCGGUGGCGCGAUAGCGCCAACGUCCUCAACCUCCAAUGCAUCCCACCACAUGAUGAUGCCUGAAGAGCUUUGGUUUUUUG [C12U C53U C124U], for which the “polymerase ribozyme fitness (log ratio)” value was 1.56.

As to GACCAAUCUGCUCUCAGAGCUCGAGAACAUCUUCGGAUGCAGAGGAGGCAGGUUUCGGUGGCGCGAUAGCGCCAACGUCCUCAACCUCCAAUGCAUCCCACCACAUGAUGAUGCCUGAAGAGCCUUGGUUUUUUG [C12U C53U], the “polymerase ribozyme fitness (log ratio)” value was found to be 0.906.

As for GACCAAUCUGCUCUCAGAGCUCGAGAACAUCUUCGGAUGCAGAGGAGGCAGGCUUAGGUGGCGCGAUAGCGCCAACGUCCUCAACCUCCAAUGCAUCCCACCACAUGAUGAUACCUGAAGAGCCUUGGUUUUUUG [C12U C56A G113A], the “polymerase ribozyme fitness (log ratio)” value is -0.59.

Turning to GACCAAUCUGCUCUCAGAGCUCGAGAACAUCUUCGGAUGCAGAGGAGGAAGGCUUCGGUGGCGCGAUAGCGCUAACGUCCUCAACCUCCAACGCAUCCCACCACAUGAUGAUGCCUGAAGAGCCUUGGUUUUUUG [C12U C49A C73U U92C], the “polymerase ribozyme fitness (log ratio)” value was -1.

Turning to GACCAAUCUGCUCUCAGAGCUCGAGAACAUCUUCGGAUGCAGAGGAGGCAGGCUUAGGUGGCGCGAUAGCGCCAACGUCCUCAACCUCCAUUGCAUCCCACCACAUGAUGAUGCCUGAAGCGCCUUGGUUUUUUG [C12U C56A A91U A121C], the “polymerase ribozyme fitness (log ratio)” value was -0.738.

Turning to GACCAAUCUGCUCUCAGAGCUCGAGAACAUCUUCGGAUGCAGAGGAGGCAGGCUUCGGUGGGGCGAUAGCGCCAACGUCCUCAAACUUCAAUGCAUCCCACCACAUGAUGAUGCCUGAAGAGCCUUGGUUUUUUG [C12U C62G C85A C88U], the “polymerase ribozyme fitness (log ratio)” value is -2.72.

With GACCAAUCUGCUCUCAGAGCUCGAGAACAUCUUCGGAUGCAGAGGAGGAAGGCUUCGGUGGCGCGAUAGCGCCAACGUCCUCAACCUCCAAUGCAUCCCACCACAUGAUGAUGCCUGAAGAGCCUUGGUUUUUUG [C12U C49A], the “polymerase ribozyme fitness (log ratio)” value was found to be 0.257.

With GACCAAUCUGCUCUCAGAGCUCGAGAACAUCUUCGGAUGCAGAGGAGGAAGGCUUCGGUGGAGCGAUAGAGCCAACGACCUCAACCUCCAAUGCAUCCCACCACAUGAUGAUGCCUGAAGAGCCUUGGUUUUUUG [C12U C49A C62A C70A U78A], the “polymerase ribozyme fitness (log ratio)” value is -4.12.

On to GACCAAUCUGCUCUCAGAGCUCGAGAACAUCUUCGGAUGCAGAGGAGGCAGGCUUUGAUGGCGCGAUAGCUCCAACGUCCUCAACCUCCAAUGCAUCCCACCACAUGAUGACGCCUGAAGAACCUUGGUUUUUUG [C12U C56U G58A G71U U112C G122A], for which the “polymerase ribozyme fitness (log ratio)” value amounted to 0.796.

GACCAAUCUGCUCUCAGAGCUCGAGAACAUCUUCGGAUGCAGAGGAGGGAGGCUUUGGUGGCGCGAUAGCGCCAACGUCCUCAACCUCCAAUGCAUCCCACCACAUGAUGAUGCCUGAAGAGCCUUGGUUUUUUG [C12U C49G C56U]: the “polymerase ribozyme fitness (log ratio)” value is -0.342.

GACCAAUCUGCUCUCAGAGCUCGAGAACAUCUUCGGAUGCAGAGGAGGCAGGGUUCGGUGCCGCGAUAGCGCCAACGUCCUCAACCUCCAAUGCAUCCCACCACAUGAUGAUGCCUGAAGAGCCUUGGUUUUUUG [C12U C53G G61C]: the “polymerase ribozyme fitness (log ratio)” value is 0.0604.

Turning to GACCAAUCUGCUCUCAGAGCUCGAGAACAUCUUCGGAUGUAGAGGAGGCAGGCUUCAGUGGCUCGAUAGCGCCAACGUCCUCAACCUGCGAUGCAUCCCACCACAUGAUGAUGCCUGAAGAGCCUUGGUUUUUUG [C12U C40U G57A G63U C88G A90G], the “polymerase ribozyme fitness (log ratio)” value is -5.54.

As to GACCAAUCUGCUCUCAGAGCUCGAGAACAUCUUCGGAUGCAGAGGAGGCAGGCUUCGGUGGAGCGAUAGCGCCAACGUCCGCAACCUCCAAUGCAUCCCACCACAUGAUGAUGCAUGAAGAGCCUUGGUUUUUUG [C12U C62A U81G C115A], the “polymerase ribozyme fitness (log ratio)” value is -2.91.

With GACCAAUCUGCUCUCAGAGCUCGAGAACAUCUUCGGAUGCAGAGGAGGUAGGCUUCGGUGGCUCGAUAGCGCCAACGUCCUCAACCUCCAAUGCAUCCCACCACAUGAUGAUGCCUGAAGAGCCUUGGUUUUUUG [C12U C49U G63U], the “polymerase ribozyme fitness (log ratio)” value was -1.49.
